{
  "source": "IntAct's records for PubMed 19737519",
  "parents": {"B1": {"name": "Ribosome assembly protein 4 (Saccharomyces cerevisiae), P25382 (parent)", "chain": "MSTLIPPPSKKQKKEAQLPREVAIIPKDLPNVSIKFQALDTGDNVGGALRVPGAISEKQLEELLNQLNGTSDDPVPYTFSCTIQGKKASDPVKTIDITDNLYSSLIKPGYNSTEDQITLLYTPRAVFKVKPVTRSSSAIAGHGSTILCSAFAPHTSSRMVTGAGDNTARIWDCDTQTPMHTLKGHYNWVLCVSWSPDGEVIATGSMDNTIRLWDPKSGQCLGDALRGHSKWITSLSWEPIHLVKPGSKPRLASSSKDGTIKIWDTVSRVCQYTMSGHTNSVSCVKWGGQGLLYSGSHDRTVRVWDINSQGRCINILKSHAHWVNHLSLSTDYALRIGAFDHTGKKPSTPEEAQKKALENYEKICKKNGNSEEMMVTASDDYTMFLWNPLKSTKPIARMTGHQKLVNHVAFSPDGRYIVSASFDNSIKLWDGRDGKFISTFRGHVASVYQVAWSSDCRLLVSCSKDTTLKVWDVRTRKLSVDLPGHKDEVYTVDWSVDGKRVCSGGKDKMVRLWTH"}},
  "data": [
    {"variants_of": "B1", "details": "with mdn1_yeast MDN1, Q12019", "values": [
      {"variant": "E114A", "effect of a mutation on the interaction": "decreasing interaction"},
      {"variant": "E114D", "effect of a mutation on the interaction": "decreasing interaction"}
    ]}
  ]
}
